Residue numbers refer to the chain shown, from its start.
B1: 2E08 (antibody, human IgG4, V domains shown)
VH: QVQMKESGAELVRPGVSVKISCKGSGYTFTDYAIHWVKQSHAKTLEWIGVISTYYGDASYNQKFKGKATMTVDKSSSTAYMELARLTSDDSAIYYCARSRGEYGNYDAMDYWGQGTSVTVSS
VL: DIVLTQSPASLAVSLGQRATISCKASQSVDYDGDSYMNWYQQKPGQPPKLLIYAASNLESGIPARFSGSGSGTDFTLNIHPVEEEDAATYYCQQSNEDPLTFGAGTKLELK
notes: chimeric human IgG4 (S-to-P, L-to-E at 248), human CL; also called Parental 2E08
B2: 2B11 (antibody, human IgG4, V domains shown)
VH: B1 VH with Q1E, M4L, K5V, T44S, D89E
VL: DIVLTQSPASLAVSLGQRATISCRASESVDSYGNSFMHWYQQKPGQPPKLLIYRASNLESGIPARFSGSGSRTDFTLTINPVEADDVATYYCQQSNEDPYTFGGGTKLEIK
notes: chimeric human IgG4 (S-to-P, L-to-E at 248), human CL; also called Parental 2B11
B3: 3A07 (antibody, human IgG4, V domains shown)
VH: QVQLQQSGAELVRPGAPVTLSCKASDYTFTDSEIHWVKQTPVHGLEWIGEIDPETGGTAYNQKFKGKATLTADKSSSTAYMELRSLTSEDSAVYYCSRETDYFFDYWGQGTTLTVSS
VL: ENVLTQSPAIMSASPGEKVTMTCSASSSVSYMYWYQQRPGSSPRLLIYDTSNLASGVPVRFSGSGSGTSYSLTISRMEAEDAATYYCQQWSSYPLTFGSGTKLEIK
notes: chimeric human IgG4 (S-to-P, L-to-E at 248), human CL; also called Parental 3A07
B4: 3B04 (antibody, human IgG4, V domains shown)
VH: B3 VH with S7P, P17S, D26G, S32Y, I34M, G57D, N61S, L83F
VL: DIQMTQTPASLSASVGETVTITCGASENIYGALNWYQRKQGKSPQLLIYGATNLADGMSSRFSGSGSGRQYSLKISSLHPDDFATYYCQNVLTTPWTFGGGTKLEIKR
notes: chimeric: mouse variable domains on human IgG4 HC (S-to-P and L-to-E at 248) and human CL; also called Parental 3B04; 3B04 chimeric
B5: 3C10 (antibody, human IgG4, V domains shown)
VH: B3 VH with Q1E, P17S
VL: B3 VL with E1D, N2V, L4M, S7T, R38K, S99A, I105L
notes: chimeric human IgG4 (S-to-P, L-to-E at 248), human CL; also called Parental 3C10
B6: 3D12 (antibody, human IgG4, V domains shown)
VH: B3 VH with S7P, P17S
VL: B4 VL with T7S, F83V, T93S
notes: chimeric: mouse variable domains on human IgG4 HC (S-to-P and L-to-E at 248) and human CL; also called Parental 3D12; 3D12 chimeric
B7: 3E09 (antibody, V domains shown)
VH: EVQLVESGGGLVKPGGSLKLSCEASGFTFSDYYMYWVRQTPEKRLEWVAAIGDGGIYTYYADTVKGRFTISRDNAKNILYLQMSSLKSNDTAMYYCARGTGDGFAYWGQGTLVTVS
VL: B2 VL with R54L, I62V, N80D, V87A, S95N
notes: chimeric human IgG4 (S-to-P, L-to-E at 248), human CL; also called Parental 3E09

Key:
[1] = target: membrane LIGHT without residues 81-84 (EL4-NC-LIGHT cells) (human, UniProt O43557 1-240); assay: cell-based or functional assay
Chain of membrane LIGHT without residues 81-84 (EL4-NC-LIGHT cells) (O43557 other isoform, or with tags, fused parts or gaps): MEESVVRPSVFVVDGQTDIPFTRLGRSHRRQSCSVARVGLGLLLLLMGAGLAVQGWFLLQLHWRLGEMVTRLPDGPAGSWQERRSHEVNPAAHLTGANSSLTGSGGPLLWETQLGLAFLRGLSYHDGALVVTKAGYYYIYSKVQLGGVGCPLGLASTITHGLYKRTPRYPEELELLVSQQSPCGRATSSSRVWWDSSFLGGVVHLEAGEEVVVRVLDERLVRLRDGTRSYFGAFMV

[2] = target: T1, human LIGHT (TNFSF14), full length, membrane-bound (214E allele) (human, UniProt O43557 1-240); assay: competition with biotin-LTβR:Fc, HEK293FF LIGHT cells, flow cytometry
T1 construct: also called membrane LIGHT; human membrane LIGHT
T1 sequence (O43557 whole entry K214E): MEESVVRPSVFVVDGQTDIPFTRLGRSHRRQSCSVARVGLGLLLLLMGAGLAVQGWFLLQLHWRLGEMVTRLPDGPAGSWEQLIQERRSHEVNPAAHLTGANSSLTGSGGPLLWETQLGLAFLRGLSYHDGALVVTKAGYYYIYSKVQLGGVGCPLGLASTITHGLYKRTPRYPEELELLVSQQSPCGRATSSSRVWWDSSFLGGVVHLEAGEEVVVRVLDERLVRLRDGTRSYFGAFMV
Experimental: (§1) The ability of the 7 chimeric mAbs to block biotin-HVEM:Fc and biotin-LTβR:Fc fusion proteins to cell surface expressed LIGHT using a flow cytometric based assay is shown in FIGS. 1A and 1B respectively. In these experiments, graded amounts of each antibody were added to the HEK293FF cells transiently transfected with LIGHT with a 50% saturating amount of the receptor fusion protein. As shown, each of the antibodies blocked either receptor fusion protein from binding LIGHT, in contrast to the irrelevant antibody control which had no effect on either Fc-receptor fusion protein binding. In each experiment, all antibodies blocked receptor binding in a dose dependent manner enabling analysis by non-linear regression to determine the IC50 dose as shown in Table 11A.

[3] = target: T1, human LIGHT (TNFSF14), full length, …; assay: competition with biotin-HVEM:Fc, HEK293FF LIGHT cells, flow cytometry
Experimental: as §1

membrane LIGHT A190S = target: T2, membrane LIGHT A190S (human, UniProt O43557 1-240); assay: flow cytometry, transfected HEK293FF, mAb at EC50
T2 chain: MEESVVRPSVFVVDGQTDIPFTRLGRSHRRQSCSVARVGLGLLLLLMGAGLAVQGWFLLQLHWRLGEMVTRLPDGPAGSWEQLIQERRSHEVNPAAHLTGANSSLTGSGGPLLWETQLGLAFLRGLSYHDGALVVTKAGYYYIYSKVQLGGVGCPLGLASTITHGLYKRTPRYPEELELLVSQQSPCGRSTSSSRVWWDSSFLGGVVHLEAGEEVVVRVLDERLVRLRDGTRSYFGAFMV
Experimental: (§2) The day of transfection the cells were seeded in a 24-well plate at 0.6×10⁶ cells/well. Lipofectamine 2000 (ThermoFisher scientific), 3 μl, was mixed with 50 μl OptiMEM medium (GIBCO) and then added to 50 μl Opti-MEM medium containing 3 ug plasmid DNA and incubated for 20 min at RT to form DNA-Lipofectamine 2000 complexes which were then added to the HEK293FF cells and incubated at 37° C., 5% CO₂ for 24 hours. For each construct, in duplicate, 0.60×10⁶ cells/well were used in a 96 well round bottom plate. Cells were centrifuged for 3 minutes at 300×g at 4° C., the supernatant discarded and the cells washed with 150 μl FACS buffer (0.5% FBS in phosphate buffered saline). This process was repeated 3 times. […] The wells were washed 3 times as above and 50 μl/well of goat anti-human IgG FITC (1:1500 dilution in FACS buffer, SIGMA F9512-2ML) or goat anti-mouse APC (1/500 dilution in FACS buffer, BDBioscience 550826), as appropriate, was added to the wells and incubated for 30 min at 4° C. protected from the light, with shaking. The cells were then washed as above, resuspended in 100 μl of FACS buffer and binding of the antibodies to the constructs was measured using flow cytometry and a total of 10,000 cells were acquired for each sample. Controls of buffer and secondary antibody only as well as HEK293FF non transfected cells were also used.

membrane LIGHT T191A = target: T3, membrane LIGHT T191A (human, UniProt O43557 1-240); assay: flow cytometry, transfected HEK293FF, mAb at EC50
T3 chain: T2 chain with S190A, T191A
Experimental: as §2

membrane LIGHT S193A = target: T4, membrane LIGHT S193A (human, UniProt O43557 1-240); assay: flow cytometry, transfected HEK293FF, mAb at EC50
T4 chain: T2 chain with S190A, S193A
Experimental: as §2

membrane LIGHT G188A = target: T5, membrane LIGHT G188A (human, UniProt O43557 1-240); assay: flow cytometry, transfected HEK293FF, mAb at EC50
T5 construct: full-length LIGHT with the substitution on HEK293FF cells
T5 chain: T2 chain with G188A, S190A
Experimental: as §2

membrane LIGHT V196A = target: T6, membrane LIGHT V196A (human, UniProt O43557 1-240); assay: flow cytometry, transfected HEK293FF, mAb at EC50
T6 chain: T2 chain with S190A, V196A
Experimental: as §2

Binder	IC50, inhibition of IL-8 secretion from HT-29 cells (EL4-NC-LIGHT cells) [1] [nM]	IC50 [2] [nM]	IC50 [3] [nM]	binding, % of WT (membrane LIGHT A190S) [%]	binding, % of WT (membrane LIGHT T191A) [%]	binding, % of WT (membrane LIGHT S193A) [%]	binding, % of WT (membrane LIGHT G188A) [%]	binding, % of WT (membrane LIGHT V196A) [%]
B1	1.8	14.4	23.8	93	22	0	44	99
B2	0.6	2.1	2.9	52	1	0	3	73
B3	2	1.4	2.5	47	4	0	5	77
B4	0.2	1.1	1.2	68	2	0	6	80
B5	1.9	1.9	2.1	40	3	0	3	78
B6	0.1	0.6	1	82	8	0	20	70
B7		12	36.6	97	88	0	35	34

— US20230035798A1 (CAPELLA BIOSCIENCE, published 2023)
